Laboratory results from patent US20240190918A1, “FIBRIL PEPTIDES” (Universität Ulm, priority 2021, published 2024).
“Also recorded” adds a separate entry of the source. Peptide text beside a SMILES is read from it.

How the values were obtained:
[1] = Thioflavin T (ThT) fluorescence, fibril formation; type: physicochemical; conditions: peptide 2 mg/ml in PBS, RT 10 min; 'except for' = no ThT signal detected
Excerpt: The fibril peptide has the activity of forming fibrils in an aqueous solution, the term “fibril” relating to any threadlike structure or filament comprising, preferably consisting of, a multitude of fibril peptides; preferably, the fibrils are nanofibrils, i.e. have a diameter of from 2 to 20 nm, and/or a length of from 100 nm to 10 μm, preferably of from 100 nm to 5 μm. Preferably, aggregation of fibril peptides occurs spontaneously in aqueous solution, wherein an aqueous solution is a solution comprising at most 28% (v/v), preferably at most 15% (v/v), more preferably at most 10% (v/v), still more preferably at most 5% (v/v), most preferably at most 2% (v/v), organic solvents. Methods for determining the activity of forming fibrils are known to the skilled person and are shown herein in the Examples. Preferably, the activity of forming fibrils is determined by a Thioflavin T binding assay as specified herein in the Examples. The activity of forming fibrils may, however, also be determined by Transmission electron microscopy (TEM), Congo Red staining, measurement of conversion rate, and/or Fourier transform infrared (FTIR) spectroscopy; the aforesaid methods are known in the art.
The peptides were solved in HFIP (1,1,1,3,3,3-Hexafluoro-2-propanol) and were sonicated using an Ultrasonic cleaner. The peptides were stored at −20° C. and for each experiment they were freshly dissolved in DMSO to 10 mg/ml; to generate fibrils, the peptides were diluted in PBS to get 2 mg/ml or 1 mg/ml and incubated for 10 min at room temperature (RT).
The lyophilized RM-8 and its derivatives (Peptides 1-42) were solved in DMSO to 10 mg/ml and stored at 4° C. For each experiment they were freshly solved in PBS to 2 mg/ml and incubated for 10 min at RT.
(§1) Peptides derived from human interleukin-18 were identified by an in silico-screening approach where the human protein interleukin-18 (Q14116) was analyzed by the amyloid prediction tools ZipperDB, TANGO 2.0 and PASTA (FIG. 1A). To examine if these endogenous peptides form nanofibrils, the freshly prepared peptides were incubated with the amyloid specific dye Thioflavin T (ThT), which fluorescence increases upon binding to amyloid fibrils. […] To determine if the IL-18 peptides have the ability to form positively charged fibrils the zeta potential was measured.

Fibril stability by UPLC = type: physicochemical; conditions: 2 mg/ml; 10 min, 1 h, 24 h, 10 d at RT or 37° C.
Method: Fibrils were generated by dissolving lyophilized peptides in DMSO to 10 mg/ml followed by adding PBS to receive a final concentration of 2 mg/ml. Fibril stocks were incubated at room temperature (RT) and 37° C. and after 10 min, 1 h, 24 h and 10 days stability assays using ultra performance liquid chromatography (UPLC) with a reverse phase column was performed in collaboration with the Core Facility Functional Peptidomics (Ulm University). Shown is one individual experiment.
Since the stability of pharmaceutical products must be ensured during application (Grassi et al., 2019), we analyzed the stability of RM-8, which contains a C-terminal methionine, an amino acid sensitive to oxidation, by ultra performance liquid chromatography (UPLC). To that end, RM-8 nanofibrils were incubated for 10 min, 1 h, 24 h or 10 d at room temperature (RT) of 37° C. followed by UPLC analysis.

[2] = tested on: Human CD4+ and CD8+ T cells; experiment: Viability of transduced human T cells, trypan blue staining; type: cell-based; conditions: 7 days
Method: FIG. 10: RM-8 nanofibrils enhance GALV-γ-RV transduction of T cells. […] GFP expression of CD3+ cells was analyzed by flow cytometry. Viability was determined by trypan blue staining. Human CD4+ and CD8+ T cells were isolated from Buffy coats of two donors. Indicated transduction enhancers were incubated with GAL V-γ-RV and then the mix was used to transduce T cells. Shown are average values (±SD). SD, standard deviation.
For the CAR T cell like process human CD4+ and CD8+ T cells were isolated from Buffy coats of two donors using RosetteSep™ Human CD4+ and CD8+ T Cell Enrichment Cocktail (STEMCELL Technologies) according to manufacturer's protocol. Isolated T cells were activated using Dynabeads™ Human T-Activator CD3/CD28 (Gibco™) according to manufacturer's protocol for three days in presence of 10 ng/ml interleukin-2 (IL-2). After 3 days the magnetic Dynabeads were removed using a magnet and T cells were cultured in presence of 9 ng/ml interleukin-7 (IL-7) and 10 ng/ml interleukin-15 (IL-15). After 1 day T cells were transduced with GALV-γ-RV using the transduction enhancers RM-8 (50 μg/ml), Vectofusin®-1 (10 μg/ml), or RetroNectin (20 μg/ml). […] After 7 days the transduced T cells were analyzed by flow cytometry.

R5-tropic HIV-1 = experiment: HIV-1 infection of TZM-bl cells, Tat-inducible β-galactosidase activity; conditions: 3 days; for n-fold enhancement of HIV-1 infection: virus treated with 150 μg/ml peptide
Method: HIV-1 was produced from pBRNL4.39-92TH14, a plasmid containing a CCR5 tropic molecular HIV-1 clone (Papkalla et al., 2002). Infectious HIV-1 stocks were prepared by transfection of 293T cells by calcium phosphate transfection and HIV-1 infection of TZM-bl cells was determined by detecting cellular β-galactosidase activity.
To determine the effect on HIV-1 infection, stocks of the CCR5 tropic HIV-1 were generated by transient transduction of 293T cells with proviral DNA and harvested 2 days later. The HIV-1 stock was titrated and a dilution factor of 125 was chosen for infection of TZM-bl cells to reach a maximal infection enhancement. HIV-1 virus was added to serially diluted IL-18 peptides and mixtures were used to infect TZM-bl cells which contain the reporter gene β-galacosidase under the control of the HIV-1-LTR promoter (Wei et al., 2002).

[3] = Zeta potential of peptide nanofibrils; type: physicochemical; conditions: peptides incubated at RT for 10 min
Method: FIG. 1: Human interleukin-18 (IL-18) derived peptides form nanofibrils. (A) Table displaying sequences, physical and chemical parameters of peptides derived from IL-18. The positively charged amino acids are written in italics. (B) ThT fluorescence of the tested peptides and EF-C (Protransduzin®-A) which were incubated at RT for 10 min. (C) Zeta potential of peptides which were incubated at RT for 10 min. Shown are average values (±SD) of duplicates from two independent experiments. (D-J) Transmission electron microscopy images of EF-C (D), RK-10 (E-F), RM-8 (G-H), RS-7 (I), and FK-7 (J). […]
FIG. 5: RM-8 analogs from alanine scanning form positively charged nanofibrils. […] (B) ThT fluorescence of alanine scanning derived peptides, RM-8, QH-9 and EF-C. […]
as §1

RTIAIISM (fibril peptide 20) [Peptide A4, RM-8 analog from alanine scanning]
ThT signal (fibril formation) [1]: except for

RTIPIISM (Peptide 17)
ThT signal (fibril formation) [1]: except for

RTIFIKSM (Peptide 26)
ThT signal (fibril formation) [1]: except for

RTIFIRSM (Peptide 25)
ThT signal (fibril formation) [1]: except for

RTIFGISM (Peptide 18)
ThT signal (fibril formation) [1]: except for

CC[C@H](C)[C@H](NC(=O)[C@H](Cc1ccccc1)NC(=O)[C@@H](NC(=O)[C@@H](NC(=O)[C@@H](N)CCCNC(=N)N)[C@@H](C)O)[C@@H](C)CC)C(=O)N[C@H](C(=O)N[C@@H](CO)C(=O)N[C@@H](CCSC)C(=O)O)[C@@H](C)CC [RM-8, RTIFIISM] (H-RTIFIISM-OH)
stability of nanofibrils (UPLC) (Fibril stability by UPLC): stable for 10 days; also recorded: stable over time | cytotoxicity on T cells [2]: without showing cytotoxicity; also recorded: not showing cytotoxicity

FK-7: peptide derived from human interleukin-18; sequence only in FIG. 1A (FIISMYK; Peptide FK-7)
n-fold enhancement of HIV-1 infection (R5-tropic HIV-1): weak or no effects

RTIFIISMYK (fibril peptide 34) [RK-10]
zeta potential (sign) [3]: positive zeta potential | enhancement of HIV-1 infection (in words) (R5-tropic HIV-1; serially diluted peptides): dose-dependably enhancement

RTIFIISA (fibril peptide 24) [Peptide A8, RM-8 analog from alanine scanning]
ThT signal (fibril formation) [1]: except for

RS-7: peptide derived from human interleukin-18; sequence only in FIG. 1A (RTIFIIS; Peptide RS-7)
n-fold enhancement of HIV-1 infection (R5-tropic HIV-1): weak or no effects

RS-12: peptide derived from human interleukin-18; sequence only in FIG. 1A (RDNAPRTIFIIS; Peptide RS-12)
n-fold enhancement of HIV-1 infection (R5-tropic HIV-1): weak or no effects
